Numbered stars: 1 amine (or outer) side, 2 acyl side, 3 side chain; on linkers, the order of the positions; unused ones are H or OH. Bridge positions count the residues as written; N and C are the ends. Side chains are listed from the residue outwards. Ends that are not written are not given here. * marks the point of attachment. C20 diacid = O=C(O)CCCCCCCCCCCCCCCCCCC(=O)*; γGlu = O=C(O)[C@H](CCC(=O)[*:2])N[*:1]; AEEA = NCCOCCOCC(=O)O

For experiment [1], the target named is T1, rat amylin receptor (rat calcitonin receptor + rat RAMP 3) (rat, UniProt P32214 25-516; Q9JJ73 23-147).
T1 construct: whole, on cells; Membranes prepared from transiently transfected BHK tk'ts 13 cells (Assay VI); also called rAmylin-R; rAmylin
T1 sequence (looked up) 1: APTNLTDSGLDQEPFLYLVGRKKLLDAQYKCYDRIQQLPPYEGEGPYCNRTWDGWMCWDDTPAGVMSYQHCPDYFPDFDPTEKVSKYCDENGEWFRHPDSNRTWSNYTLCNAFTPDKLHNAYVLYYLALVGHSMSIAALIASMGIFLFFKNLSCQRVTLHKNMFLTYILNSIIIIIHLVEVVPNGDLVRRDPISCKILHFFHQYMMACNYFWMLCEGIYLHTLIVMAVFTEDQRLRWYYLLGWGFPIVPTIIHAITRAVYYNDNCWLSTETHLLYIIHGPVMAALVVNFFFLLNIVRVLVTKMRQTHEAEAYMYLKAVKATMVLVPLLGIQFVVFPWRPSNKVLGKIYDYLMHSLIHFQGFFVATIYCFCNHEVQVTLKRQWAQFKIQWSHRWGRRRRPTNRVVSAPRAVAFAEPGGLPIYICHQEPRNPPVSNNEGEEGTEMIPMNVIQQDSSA
T1 sequence (looked up) 2: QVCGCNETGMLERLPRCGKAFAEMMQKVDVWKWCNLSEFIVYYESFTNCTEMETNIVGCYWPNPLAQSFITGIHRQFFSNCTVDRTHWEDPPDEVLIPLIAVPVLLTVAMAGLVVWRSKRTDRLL
The experiment is described as follows: SPA competition vs 125I-rat amylin, membranes of BHK cells with rat calcitonin receptor + rat RAMP3 (Assay VI). How it is done: The binding assay was performed using scintillation proximity assay (SPA) beads (RPNQ0001) from PerkinElmer and cell membranes from the Amylin 3(a)/CRE-luc cells (as described in Assay (II)) were used. Membranes were prepared in the following way; the cells were rinsed with PBS and incubated with Versene for approximately 5 min before harvesting. The cells were flushed with PBS and the cell-suspension was centrifuged for 5 min at 1000 rpm. Cells were homogenized (ultrathurrax) in a buffer containing 20 mM Na-HEPES and 10 mM EDTA (pH 7.4) and centrifuged at 20.000 rpm for 15 min. The resulting pellet was resuspended, homogenized and centrifuged (20.000 rpm, 15 min) in a buffer containing 20 mM Na-HEPES and 0.1 mM EDTA (pH 7.4, buffer 2). The resulting pellet was resuspended in buffer 2 and protein concentration was measured (BCA protein Assay, Pierce). The homogenate was kept cold during the whole procedure. The membranes were kept at −80° C. until use. The assay was performed in a 384 well Optiplate (PerkinElmer) in a total volume of 40 ul. Membranes were mixed with SPA beads. Final concentration of membranes 35 ng/μL final and SPA beads was 0.05 mg/well. Test-compounds were dissolved in DMSO and further diluted in assay buffer (50 mM Hepes, pH 7.4, 1 mM CaCl2, 5 mM MgCl₂, 0.1% OA and 0.02% Tween20). […] The final mixture was incubated with shaking at 400 rpm for 120 min at 25° C. prior to centrifugation (1500 rpm, 10 min). Samples were analyzed on TopCounter™ (Packard). The IC₅₀ was calculated using (one site binding competition analysis) GraphPad Prism5 as a measure of receptor affinity.
Cells were grown in DMEM with 10% FBS and 1% Pen/Strep. Approximately 48 hours after transfection, the cells were harvested and membranes were prepared.

For experiment [2], the target named is T2, rat calcitonin receptor (rat, UniProt P32214 25-516).
T2 construct: whole, on cells; Membranes prepared from transiently transfected BHK tk'ts 13 cells (Assay VIII); also called rCTR; rCT
T2 sequence (looked up): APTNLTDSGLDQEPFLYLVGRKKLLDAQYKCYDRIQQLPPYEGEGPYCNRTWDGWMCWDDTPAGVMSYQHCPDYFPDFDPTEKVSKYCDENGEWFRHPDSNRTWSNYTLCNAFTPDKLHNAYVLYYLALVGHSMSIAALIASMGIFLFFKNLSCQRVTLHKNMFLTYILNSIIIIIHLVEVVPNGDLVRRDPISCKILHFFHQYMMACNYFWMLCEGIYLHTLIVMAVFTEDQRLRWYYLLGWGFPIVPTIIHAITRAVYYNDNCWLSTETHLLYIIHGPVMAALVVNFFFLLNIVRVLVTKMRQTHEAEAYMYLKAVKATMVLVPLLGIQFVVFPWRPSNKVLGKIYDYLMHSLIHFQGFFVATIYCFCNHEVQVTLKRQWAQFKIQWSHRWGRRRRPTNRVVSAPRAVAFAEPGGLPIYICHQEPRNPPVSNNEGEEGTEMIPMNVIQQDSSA
The experiment is described as follows: SPA competition vs 125I-calcitonin, membranes of BHK cells with rat calcitonin receptor (Assay VIII).

Experiment [3] addresses T3, human calcitonin receptor (human, UniProt P30988 25-474).
T3 construct: whole, on cells; Membranes prepared from a stably transfected BHK cell line (Assay VII); also called hCTR; hCT
T3 sequence (looked up): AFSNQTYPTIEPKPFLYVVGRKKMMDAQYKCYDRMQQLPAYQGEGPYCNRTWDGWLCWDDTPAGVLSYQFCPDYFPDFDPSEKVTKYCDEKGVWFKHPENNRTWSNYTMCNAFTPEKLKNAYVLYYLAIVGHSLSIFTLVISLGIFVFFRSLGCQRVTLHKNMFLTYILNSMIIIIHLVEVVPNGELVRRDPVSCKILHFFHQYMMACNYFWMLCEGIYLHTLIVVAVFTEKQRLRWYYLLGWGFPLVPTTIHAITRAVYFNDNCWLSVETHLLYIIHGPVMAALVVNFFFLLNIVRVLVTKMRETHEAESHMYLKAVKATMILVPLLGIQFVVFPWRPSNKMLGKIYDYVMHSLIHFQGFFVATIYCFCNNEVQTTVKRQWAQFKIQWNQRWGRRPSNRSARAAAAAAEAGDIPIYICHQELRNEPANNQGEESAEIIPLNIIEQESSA
Description: ratio of binding IC50s: human calcitonin receptor / human amylin receptor (reference). How it is done: The resulting pellet was resuspended, homogenized and centrifuged (20.000 rpm, 15 min) in a buffer containing 20 mM Na-HEPES and 0.1 mM EDTA (pH 7.4, buffer 2). The resulting pellet was resuspended in buffer 2 and protein concentration was measured (BCA protein Assay, Pierce). The homogenate was kept cold during the whole procedure. The membranes were kept at −80° C. until use. The assay was performed in a 384 well Optiplate (PerkinElmer) in a total volume of 40 ul. Membranes were mixed with SPA beads. Final concentration of membranes 35 ng/μL final and SPA beads was 0.05 mg/well. Test-compounds were dissolved in DMSO and further diluted in assay buffer (50 mM Hepes, pH 7.4, 1 mM CaCl2, 5 mM MgCl₂, 0.1% OA and 0.02% Tween20). […] The final mixture was incubated with shaking at 400 rpm for 120 min at 25° C. prior to centrifugation (1500 rpm, 10 min). Samples were analyzed on TopCounter™ (Packard). The IC₅₀ was calculated using (one site binding competition analysis) GraphPad Prism5 as a measure of receptor affinity.
Membranes were prepared in the following way; the cells were rinsed with PBS and incubated with Versene for approximately 5 min before harvesting. The cells were flushed with PBS and the cell-suspension was centrifuged for 5 min at 1000 rpm. Cells were homogenized (Ultrathurrax) in a buffer containing 20 mM Na-HEPES and 10 mM EDTA (pH 7.4) and centrifuged at 20.000 rpm for 15 min. The resulting pellet was resuspended, homogenized and centrifuged (20.000 rpm, 15 min) in a buffer containing 20 mM Na-HEPES and 0.1 mM EDTA (pH 7.4, buffer 2). The resulting pellet was resuspended in buffer 2 and protein concentration was measured (BCA protein Assay, Pierce). The homogenate was kept cold during the whole procedure. The membranes were kept at −80° C. until use. Assay was performed in a 384 well Optiplate (PerkinElmer) in a total volume of 40 ul. Membranes were mixed with SPA beads.

Experiment [4] addresses T2, rat calcitonin receptor. The experiment is described as follows: ratio of binding IC50s: rat calcitonin receptor / rat amylin receptor (reference).

B1: N^ε1-[2-[2-[2-[[(4S)-4-carboxy-4-(19-carboxynonadecanoylamino)butanoyl]amino]ethoxy]ethoxy]acetyl]-[His14,Arg17,Pro21,Pro27]-h-amylin (peptide)
peptide: K([AEEA-γGlu-C20 diacid])CNTATCATQRLAHFLRHSSPNFGAIPSSTNVGSNTY-NH2
modifications: disulfide 2-7; N-terminus assumed
SMILES: CC[C@H](C)[C@H](NC(=O)[C@H](C)NC(=O)CNC(=O)[C@H](Cc1ccccc1)NC(=O)[C@H](CC(N)=O)NC(=O)[C@@H]1CCCN1C(=O)[C@H](CO)NC(=O)[C@H](CO)NC(=O)[C@H](Cc1c[nH]cn1)NC(=O)[C@H](CCCNC(=N)N)NC(=O)[C@H](CC(C)C)NC(=O)[C@H](Cc1ccccc1)NC(=O)[C@H](Cc1c[nH]cn1)NC(=O)[C@H](C)NC(=O)[C@H](CC(C)C)NC(=O)[C@H](CCCNC(=N)N)NC(=O)[C@H](CCC(N)=O)NC(=O)[C@@H](NC(=O)[C@H](C)NC(=O)[C@@H]1CSSC[C@H](NC(=O)[C@@H](N)CCCCNC(=O)COCCOCCNC(=O)CC[C@H](NC(=O)CCCCCCCCCCCCCCCCCCC(=O)O)C(=O)O)C(=O)N[C@@H](CC(N)=O)C(=O)N[C@@H]([C@@H](C)O)C(=O)N[C@@H](C)C(=O)N[C@@H]([C@@H](C)O)C(=O)N1)[C@@H](C)O)C(=O)N1CCC[C@H]1C(=O)N[C@@H](CO)C(=O)N[C@@H](CO)C(=O)N[C@H](C(=O)N[C@@H](CC(N)=O)C(=O)N[C@H](C(=O)NCC(=O)N[C@@H](CO)C(=O)N[C@@H](CC(N)=O)C(=O)N[C@H](C(=O)N[C@@H](Cc1ccc(O)cc1)C(N)=O)[C@@H](C)O)C(C)C)[C@@H](C)O
notes: Analogue of human amylin; also called compound 69
What is called IC50 is the concentration at which inhibition is half-maximal. Turning to B1, the IC50 in experiment [1] is 0.45 nM; in the experiment with rat calcitonin receptor [2], 46.8 nM. In experiment [3], the “Ratio hCT/hAmylin binding” value turned out to be 65.3. For the same molecule, the “Ratio rCT/rAmylin binding” value with rat calcitonin receptor [4] was 104.

B2: N^ε1-[2-[2-[2-[[(4S)-4-carboxy-4-(19-carboxynonadecanoylamino)butanoyl]amino]ethoxy]ethoxy]acetyl]-[Ala14,Arg17,Pro21,Pro27,Pro31]-h-amylin (peptide)
peptide: K([AEEA-γGlu-C20 diacid])CNTATCATQRLAAFLRHSSPNFGAIPSSTPVGSNTY-NH2
modifications: disulfide 2-7; N-terminus assumed
SMILES: CC[C@H](C)[C@H](NC(=O)[C@H](C)NC(=O)CNC(=O)[C@H](Cc1ccccc1)NC(=O)[C@H](CC(N)=O)NC(=O)[C@@H]1CCCN1C(=O)[C@H](CO)NC(=O)[C@H](CO)NC(=O)[C@H](Cc1c[nH]cn1)NC(=O)[C@H](CCCNC(=N)N)NC(=O)[C@H](CC(C)C)NC(=O)[C@H](Cc1ccccc1)NC(=O)[C@H](C)NC(=O)[C@H](C)NC(=O)[C@H](CC(C)C)NC(=O)[C@H](CCCNC(=N)N)NC(=O)[C@H](CCC(N)=O)NC(=O)[C@@H](NC(=O)[C@H](C)NC(=O)[C@@H]1CSSC[C@H](NC(=O)[C@@H](N)CCCCNC(=O)COCCOCCNC(=O)CC[C@H](NC(=O)CCCCCCCCCCCCCCCCCCC(=O)O)C(=O)O)C(=O)N[C@@H](CC(N)=O)C(=O)N[C@@H]([C@@H](C)O)C(=O)N[C@@H](C)C(=O)N[C@@H]([C@@H](C)O)C(=O)N1)[C@@H](C)O)C(=O)N1CCC[C@H]1C(=O)N[C@@H](CO)C(=O)N[C@@H](CO)C(=O)N[C@H](C(=O)N1CCC[C@H]1C(=O)N[C@H](C(=O)NCC(=O)N[C@@H](CO)C(=O)N[C@@H](CC(N)=O)C(=O)N[C@H](C(=O)N[C@@H](Cc1ccc(O)cc1)C(N)=O)[C@@H](C)O)C(C)C)[C@@H](C)O
notes: Analogue of human amylin; also called compound 72
Regarding B2, the IC50 in experiment [1] was 0.851 nM; with rat calcitonin receptor [2] it was 221 nM. Further, in experiment [3], the “Ratio hCT/hAmylin binding” value is 247. For the same molecule, in the experiment with rat calcitonin receptor [4], the “Ratio rCT/rAmylin binding” value worked out at 259.

B3: N^ε1-[2-[2-[2-(19-carboxynonadecanoylamino)ethoxy]ethoxy]acetyl]-[Arg17,Pro21,Pro27,His34]-h-amylin (peptide)
peptide: K([AEEA-C20 diacid])CNTATCATQRLANFLRHSSPNFGAIPSSTNVGHNTY-NH2
modifications: disulfide 2-7; N-terminus assumed
SMILES: CC[C@H](C)[C@H](NC(=O)[C@H](C)NC(=O)CNC(=O)[C@H](Cc1ccccc1)NC(=O)[C@H](CC(N)=O)NC(=O)[C@@H]1CCCN1C(=O)[C@H](CO)NC(=O)[C@H](CO)NC(=O)[C@H](Cc1c[nH]cn1)NC(=O)[C@H](CCCNC(=N)N)NC(=O)[C@H](CC(C)C)NC(=O)[C@H](Cc1ccccc1)NC(=O)[C@H](CC(N)=O)NC(=O)[C@H](C)NC(=O)[C@H](CC(C)C)NC(=O)[C@H](CCCNC(=N)N)NC(=O)[C@H](CCC(N)=O)NC(=O)[C@@H](NC(=O)[C@H](C)NC(=O)[C@@H]1CSSC[C@H](NC(=O)[C@@H](N)CCCCNC(=O)COCCOCCNC(=O)CCCCCCCCCCCCCCCCCCC(=O)O)C(=O)N[C@@H](CC(N)=O)C(=O)N[C@@H]([C@@H](C)O)C(=O)N[C@@H](C)C(=O)N[C@@H]([C@@H](C)O)C(=O)N1)[C@@H](C)O)C(=O)N1CCC[C@H]1C(=O)N[C@@H](CO)C(=O)N[C@@H](CO)C(=O)N[C@H](C(=O)N[C@@H](CC(N)=O)C(=O)N[C@H](C(=O)NCC(=O)N[C@@H](Cc1c[nH]cn1)C(=O)N[C@@H](CC(N)=O)C(=O)N[C@H](C(=O)N[C@@H](Cc1ccc(O)cc1)C(N)=O)[C@@H](C)O)C(C)C)[C@@H](C)O
notes: Analogue of human amylin; also called compound 91
With B3, the 50% inhibitory concentration (IC50) is 0.386 nM in experiment [1] and 29.4 nM with rat calcitonin receptor [2]. Also, the “Ratio hCT/hAmylin binding” value in experiment [3] turned out to be 101. Besides, the “Ratio rCT/rAmylin binding” value in the experiment with rat calcitonin receptor [4] was 76.3.
